We go through two molecules from patent publication US20130150294A1 (UNIVERSITY OF TOLEDO, published 2013).

In test [1] the target is T1, Src of LLC-PK1 cells (endogenous) (pig, UniProt K7GM45 2-548).
T1 construct: Species from the cell line (pig kidney proximal LLC-PK1); also called Src from the LLC-PK1 cell lysates; Src in TCN23-19 and PY-17 cells (clones of LLC-PK1)
The experiment in a line: GST pulldown from cell lysates, Western blot. (In general: In western blotting, separated proteins are transferred to a membrane and probed.)

For test [2], the target named is purified pig kidney Na+/K+-ATPase (PKE) (pig, UniProt P05024 6-1021; P05027 1-303). The experiment in a line: in vitro binding assay with GST-tagged Src truncations and purified Na+/K+-ATPase.

B1: GST-SERCA-CD3 (other)
chain: GTRRMAKKNAIVRSLPSVETLGCTSVICSDKTGTLTTNQMSVCRMFILDKVEGDTCSLNEFTITGSTYAPIGEVQKDDKPVKCHQYDGLVELATICALCNDSALDYNEAKGVYEKVGEATETALTCLVEKMNVFDTELKGLSKIERANACNSVIKQLMKKEFTLEFSRDRKSMSVYCTPNKPSRTSMSKMFVKGAPEGVIDRCTHIRVGSTKVPMTPGVKQKIMSVIREWGSGSDTLRCLALATHDNPLRREEMHLEDSANFIKYETNLTFVGCVGMLDPPRIEVASSVKLCRQAGIRVIMITGDNKGTAVAICRRIGIFGQDEDVTSKAFTGREFDELSPSAQRDACLNARCFARVEPSHKSKIVEFLQSFDEITAMTGDGVNDAPALKKSEIGIAMGSGTAVAKTASEMVLADDNFSTIVAAVEEGRAIYNNMKQFIRYLISSNV
notes: also called GST-CD3 from rat heart sarcoplasmic reticulum Ca2+-ATPase 2a
As to B1, the binding result in test [1] is “no binding (tested: 1 mg LLC-PK1 cell lysates)”.

B2: GST-KD1 of Src (other)
chain: LRLEVKLGQGCFGEVWMGTWNGTTRVAIKTLKPGTMSPEAFLQEAQVMKKLRHE
notes: also called GST-tagged Src truncation; not shown: glutathione S-transferase (GST) fusion tag
Turning to B2, the binding result in test [2] is given as “binds”.
